Data on three molecules can be found in article PMC12093266 (2025).

Sequences and labels used below:
B1: TrnC (enzyme)
chain: MSKKRLSMMPFKTDKFSYALDGNTGRVIVADKPTLYIISHFHKFEKEELLKKTKGKFAELHQDYLTTYNYVSSLINMGMFYLSEKEDSDSPIDSKELAINSNQSQLILILTEKCNLRCEYCIYNDKYPKEMGYSDEEMDFETAKKAVDMYYELHMERVKRGHKRFPVITMYGGEPLLKFDLIKKVMEYAKGLMPDTLFYTTTNGTLLSEKMMDYFINNRIIITFSIDGFKENHDRNRVFVNGMPTFERAFKNIKRLQEKKKEQNIEQIISFNCCFDQYTDVYKVAKFFEEHYDLFNPFFVLYNQINPFDTLYFDWCDEQVKTGKWNFDKNNFKNAMQKIEHELYEAETCDDHFQQVAGPLVMKDFVLSIRNKDGQQQITRNSCIPTSKIAVSPDGTLTLCEKMCKKYPIGTVEKGLDWKAVDGVTEKLVRHFNSDSCKYCPIRTMCEACFMFLDENGRIKPSFCKSKKMAVKKNLESYFAKKEKGFDVMKVYNHTSDLDSVKEMVK
modifications: fluorescently labeled with RED-NHS (in the MST experiments where TrnC is the labelled partner)
B2: TrnB (peptide)
chain: MEVLNKQNVNIIPESEEVGGWVACVGACGTVCLASGGVGTEFAAASYFL
B3: TrnA (peptide)
chain: MEVMNNALITKVDEEIGGNAACVIGCIGSCVISEGIGSLVGTAFTLG

Holding throughout (test): MST
The target of one experiment is E79A mutant of TrnD (Bacillus thuringiensis).
The experiment “TrnC” deals with B1.
In another experiment the target is T1, TrnD (Bacillus thuringiensis, fluorescently labeled (in the MST of Fig. 5D only)).
T1 chain: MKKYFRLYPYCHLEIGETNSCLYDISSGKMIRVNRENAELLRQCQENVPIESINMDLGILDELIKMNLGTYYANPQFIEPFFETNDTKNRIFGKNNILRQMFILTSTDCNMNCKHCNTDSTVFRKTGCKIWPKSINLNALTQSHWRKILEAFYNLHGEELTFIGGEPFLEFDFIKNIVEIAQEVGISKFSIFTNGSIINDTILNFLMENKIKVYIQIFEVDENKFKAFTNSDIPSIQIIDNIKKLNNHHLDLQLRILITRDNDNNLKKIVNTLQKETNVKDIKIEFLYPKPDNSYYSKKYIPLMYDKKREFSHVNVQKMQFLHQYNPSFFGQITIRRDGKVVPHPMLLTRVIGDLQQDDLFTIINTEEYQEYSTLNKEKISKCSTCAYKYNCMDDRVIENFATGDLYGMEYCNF

As to B1, the Kd (as a rule, the concentration at which binding is half-saturated) in the experiment with E79A mutant of TrnD was determined as 590 nM. On to B2, for which the Kd stood at 2470 nM with TrnC and 2110 nM in the experiment with TrnD. On the same counts, the results for B3 are 5410 nM and 4430 nM.
